The values that follow come from patent US20230391845A1, “GLP-1, GIP AND GLUCAGON RECEPTOR TRIPLE AGONISTS” (priority 2020, published 2023).

Assay in all cases: cell-based or functional assay
The target in assay [1] is human glucagon-like peptide 1 receptor (human, UniProt P43220 24-463).
The target in assay [2] is T1, human glucose-dependent insulinotropic polypeptide receptor (human, UniProt P48546 22-466).
T1 sequence (looked up): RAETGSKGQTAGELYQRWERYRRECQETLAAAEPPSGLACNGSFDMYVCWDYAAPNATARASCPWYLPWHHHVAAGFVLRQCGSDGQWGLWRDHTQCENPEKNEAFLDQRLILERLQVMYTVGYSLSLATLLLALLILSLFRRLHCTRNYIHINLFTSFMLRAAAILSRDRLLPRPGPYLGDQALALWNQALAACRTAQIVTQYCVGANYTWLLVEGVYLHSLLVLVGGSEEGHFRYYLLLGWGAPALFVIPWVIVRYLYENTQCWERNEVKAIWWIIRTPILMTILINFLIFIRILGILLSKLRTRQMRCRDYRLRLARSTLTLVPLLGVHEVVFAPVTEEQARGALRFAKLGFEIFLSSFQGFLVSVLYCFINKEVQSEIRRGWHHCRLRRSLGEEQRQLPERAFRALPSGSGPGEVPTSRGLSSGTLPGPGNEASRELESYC

Another assay concerns the target human glucagon receptor (human, UniProt P47871 26-477).

Where no end group is shown, it is not given here. [ ]: non-standard residue; d: D form. Aib = CC(C)(N)C(=O)O

human glucagon receptor, sequence (P47871 26-477): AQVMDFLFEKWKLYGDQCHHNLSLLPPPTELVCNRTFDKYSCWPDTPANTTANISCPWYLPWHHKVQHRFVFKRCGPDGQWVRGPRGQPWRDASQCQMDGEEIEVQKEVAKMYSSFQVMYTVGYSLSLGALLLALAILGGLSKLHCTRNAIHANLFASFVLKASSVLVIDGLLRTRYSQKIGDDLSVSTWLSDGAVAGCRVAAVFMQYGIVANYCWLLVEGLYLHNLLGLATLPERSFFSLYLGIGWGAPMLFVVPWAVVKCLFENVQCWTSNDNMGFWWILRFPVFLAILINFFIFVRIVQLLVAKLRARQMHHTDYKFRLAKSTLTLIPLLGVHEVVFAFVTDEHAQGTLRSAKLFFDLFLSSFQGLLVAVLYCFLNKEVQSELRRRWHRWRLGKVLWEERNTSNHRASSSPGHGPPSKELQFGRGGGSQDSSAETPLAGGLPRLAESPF

B1: Compound No. 53 (peptide)
peptide: H[Aib]HGTFTSDYSILLEKQAAQEFVQWLLEGGPSSGAPPPS-OH
modifications: not fully specified (residue 16); printed as H-Aib-HGTFTSDYSILLE-K[(2S)-2-amino-6-[[(2S)-2-amino-6-[[(4S)-4-carboxy-4-(19-carboxynonadecanoylamino)butanoyl]amino]hexanoyl]amino]hexanoyl]-QAAQEFVQWLLEGGPSSGAPPPS-OH
Take B1: in assay [1], the “hGLP-1R CRE Luc EC50 (pM)” value was determined as 2.7 pM. In addition, the “hGIPR CRE Luc EC50 (pM)” value in assay [2] is 4.8 pM. For the same molecule, the “hGcgR CRE Luc EC50 (pM)” value in the assay with human glucagon receptor stood at 22 pM.

B2: Compound No. 55 (peptide)
peptide: H[Aib]HGTFTSDYSILLEKQAAREFVQWLLEGGPSSGAPPPS-OH
modifications: not fully specified (residue 16); printed as H-Aib-HGTFTSDYSILLE-K[(2S)-2-amino-6-[[(2S)-2-amino-6-[[(4S)-4-carboxy-4-(19-carboxynonadecanoylamino)butanoyl]amino]hexanoyl]amino]hexanoyl]-QAAREFVQWLLEGGPSSGAPPPS-OH
Regarding B2, the “hGLP-1R CRE Luc EC50 (pM)” value in assay [1] was 2 pM. Besides, the “hGIPR CRE Luc EC50 (pM)” value in assay [2] came to 7.5 pM. Besides, the “hGcgR CRE Luc EC50 (pM)” value in the assay with human glucagon receptor is 18.8 pM.

B3: Compound No. 51 (peptide)
peptide: H[Aib]HGTFTSDYSILLEKQAAEEFVQWLLEGGPSSGAPPPS-OH
modifications: not fully specified (residue 16); printed as H-Aib-HGTFTSDYSILLE-K[(2S)-2-amino-6-[[(2S)-2-amino-6-[[(4S)-4-carboxy-4-(17-carboxyheptadecanoylamino)butanoyl]amino]hexanoyl]amino]hexanoyl]-QAAEEFVQWLLEGGPSSGAPPPS-OH
Turning to B3, the “hGLP-1R CRE Luc EC50 (pM)” value in assay [1] is 0.7 pM. Besides, the “hGIPR CRE Luc EC50 (pM)” value in assay [2] was 1.8 pM. Also, in the assay with human glucagon receptor, the “hGcgR CRE Luc EC50 (pM)” value was found to be 79.9 pM.

B4: Compound No. 50 (peptide)
peptide: H[Aib]HGTFTSDYSILLEKQAAEEFVQWLLEGGPSSGAPPPS-OH
modifications: not fully specified (residue 16); printed as H-Aib-HGTFTSDYSILLE-K[(2S)-2-amino-6-[[(2S)-2-amino-6-[[(4S)-4-carboxy-4-(19-carboxynonadecanoylamino)butanoyl]amino]hexanoyl]amino]hexanoyl]-QAAEEFVQWLLEGGPSSGAPPPS-OH
Turning to B4, the “hGLP-1R CRE Luc EC50 (pM)” value in assay [1] came to 1 pM. The “hGIPR CRE Luc EC50 (pM)” value in assay [2] is 1.9 pM. Besides, the “hGcgR CRE Luc EC50 (pM)” value with human glucagon receptor was 18.5 pM.

B5: Compound No. 9 (peptide)
peptide: Y[Aib]QGTFTSDYSIYLDKKAA[Aib]EFVNWLLAGGPSSGAPPPS-NH2
modifications: not fully specified (residue 17); printed as Y-Aib-QGTFTSDYSIYLDK-K[2-[2-[2-[[2-[2-[2-[[(4S)-4-carboxy-4-(19-carboxynonadecanoylamino)butanoyl]amino]ethoxy]ethoxy]acetyl]amino]ethoxy]ethoxy]acetyl]-AA-Aib-EFVNWLLAGGPSSGAPPPS-NH2
Regarding B5, the “hGLP-1R CRE Luc EC50 (pM)” value in assay [1] stood at 4.4 pM. Besides, in assay [2], the “hGIPR CRE Luc EC50 (pM)” value turned out to be 48.6 pM. Besides, the “hGcgR CRE Luc EC50 (pM)” value with human glucagon receptor is 116 pM.

B6: Compound No. 4 (peptide)
peptide: Y[Aib]QGTFTSDYSIYLDKQAA[Aib]KFVQWLLEGGPSSGAPPPS-NH2
modifications: not fully specified (residue 21); printed as Y-Aib-QGTFTSDYSIYLDKQAA-Aib-K[2-[2-[2-[[2-[2-[2-[[(4S)-4-carboxy-4-(17-carboxyheptadecanoylamino)butanoyl]amino]ethoxy]ethoxy]acetyl]amino]ethoxy]ethoxy]acetyl]-FVQWLLEGGPSSGAPPPS-NH2
Regarding B6, in assay [1], the “hGLP-1R CRE Luc EC50 (pM)” value turned out to be 9.4 pM. Besides, the “hGIPR CRE Luc EC50 (pM)” value in assay [2] worked out at 60.3 pM. For the same molecule, the “hGcgR CRE Luc EC50 (pM)” value in the assay with human glucagon receptor stood at 31.4 pM.

B7: Compound No. 5 (peptide)
peptide: Y[Aib]QGTFTSDYSIYLDKQAA[Aib]EFVNWLLAGGPSSGAPPPS-NH2
modifications: not fully specified (residue 16); printed as Y-Aib-QGTFTSDYSIYLD-K[2-[2-[2-[2-[2-[2-[[[(4S)-4-carboxy-4-(19-carboxynonadecanoylamino) butanoyl]amino]ethoxy]ethoxy]acetyl]amino]ethoxy]ethoxy]acetyl]-QAA-Aib-EFVNWLLAGGPSSGAPPPS-NH2
B7: the “hGLP-1R CRE Luc EC50 (pM)” value in assay [1] was 7.2 pM. For the same molecule, the “hGIPR CRE Luc EC50 (pM)” value in assay [2] turned out to be 20.6 pM. Also, the “hGcgR CRE Luc EC50 (pM)” value with human glucagon receptor came out at 205 pM.

B8: Compound No. 56 (peptide)
peptide: H[Aib]HGTFTSDYSILLEKQAAHEFVQWLLEGGPSSGAPPPS-OH
modifications: not fully specified (residue 16); printed as H-Aib-HGTFTSDYSILLE-K[(2S)-2-amino-6-[[(2S)-2-amino-6-[[(4S)-4-carboxy-4-(17-carboxyheptadecanoylamino)butanoyl]amino]hexanoyl]amino]hexanoyl]-QAAHEFVQWLLEGGPSSGAPPPS-OH
Regarding B8, the “hGLP-1R CRE Luc EC50 (pM)” value in assay [1] turned out to be 1.1 pM. For the same molecule, the “hGIPR CRE Luc EC50 (pM)” value in assay [2] is 2.3 pM. In addition, in the assay with human glucagon receptor, the “hGcgR CRE Luc EC50 (pM)” value is 6.4 pM.

B9: Compound No. 8 (peptide)
peptide: Y[Aib]QGTFTSDYSIYLDKQAA[Aib]KFVQWLLEGGPSSGAPPPS-NH2
modifications: not fully specified (residue 21); printed as Y-Aib-QGTFTSDYSIYLDKQAA-Aib-K[2-[2-[2-[[2-[2-[2-[[(4S)-4-carboxy-4-[[4-[(19-carboxynonadecanoylamino)methyl]cyclohexanecarbonyl]amino]butanoyl]amino]ethoxy]ethoxy]acetyl]amino]ethoxy]ethoxy]acetyl]-FVQWLLEGGPSSGAPPPS-NH2
Take B9: the “hGLP-1R CRE Luc EC50 (pM)” value in assay [1] was found to be 12.1 pM. Further, the “hGIPR CRE Luc EC50 (pM)” value in assay [2] is 45.5 pM. In the assay with human glucagon receptor, the “hGcgR CRE Luc EC50 (pM)” value came to 91.9 pM.
Consider Y[Aib]QGTFTSDYSIYLEKQAA[Aib]KFVQWLLEGGPSSGAPPPS-NH2 (not fully specified (residue 21)) [Compound No. 11], for which the “hGLP-1R CRE Luc EC50 (pM)” value in assay [1] was 4.3 pM. For the same molecule, the “hGIPR CRE Luc EC50 (pM)” value in assay [2] amounted to 7.9 pM. Further, the “hGcgR CRE Luc EC50 (pM)” value with human glucagon receptor was determined as 129 pM.

B10: Compound No. 6 (peptide)
peptide: Y[Aib]QGTFTSDYSIYLDKQAA[Aib]EFVNWLLAGGPSSGAPPPS-NH2
modifications: not fully specified (residue 16); printed as Y-Aib-QGTFTSDYSIYLD-K[2-[2-[2-[[2-[2-[2-[[(4S)-4-carboxy-4-[[4-[(19-carboxynonadecanoylamino) methyl]cyclohexanecarbonyl]amino]butanoyl]amino]ethoxy ]ethoxy]acetyl]amino]ethoxy]ethoxy]acetyl]-QAA-Aib-EFVNWLLAGGPSSGAPPPS-NH2
On to B10, for which, in assay [1], the “hGLP-1R CRE Luc EC50 (pM)” value worked out at 5.1 pM. In addition, the “hGIPR CRE Luc EC50 (pM)” value in assay [2] worked out at 7.7 pM. For the same molecule, the “hGcgR CRE Luc EC50 (pM)” value with human glucagon receptor was 216 pM.

B11: Compound No. 7 (peptide)
peptide: Y[Aib]QGTFTSDYSIYLDKQAA[Aib]KFVQWLLEGGPSSGAPPPS-NH2
modifications: not fully specified (residue 21); printed as Y-Aib-QGTFTSDYSIYLDKQAA-Aib-K[2-[2-[2-[[2-[2-[2-11(4S)-4-carboxy-4-(19-carboxynonadecanoylamino)butanoyl]amino]ethoxy]ethoxy]acetyl]amino]ethoxy]ethoxy]acetyl]-FVQWLLEGGPSSGAPPPS-NH2
Turning to B11, in assay [1], the “hGLP-1R CRE Luc EC50 (pM)” value was 8.2 pM. Moreover, in assay [2], the “hGIPR CRE Luc EC50 (pM)” value came out at 65.5 pM. Also, in the assay with human glucagon receptor, the “hGcgR CRE Luc EC50 (pM)” value came out at 61.3 pM.

B12: Compound No. 54 (peptide)
peptide: H[Aib]HGTFTSDYSILLEKQAAREFVQWLLEGGPSSGAPPPS-OH
modifications: not fully specified (residue 16); printed as H-Aib-HGTFTSDYSILLE-K[(2S)-2-amino-6-[[(2S)-2-amino-6-[[(4S)-4-carboxy-4-(17-carboxyheptadecanoylamino)butanoyl]amino]hexanoyl]amino]hexanoyl]-QAAREFVQWLLEGGPSSGAPPPS-OH
For B12, in assay [1], the “hGLP-1R CRE Luc EC50 (pM)” value was 1.5 pM. The “hGIPR CRE Luc EC50 (pM)” value in assay [2] was 28 pM. The “hGcgR CRE Luc EC50 (pM)” value in the assay with human glucagon receptor worked out at 22.8 pM.

B13: Compound No. 10 (peptide)
peptide: Y[Aib]QGTFTSDYSIYLDKKAA[Aib]EFVNWLLAGGPSSGAPPPS-NH2
modifications: not fully specified (residue 17); printed as Y-Aib-QGTFTSDYSIYLDK-K[2-[2-[2-[[2-[2-[2-[[(4S)-4-carboxy-4-[[4-[(19-carboxynonadecanoylamino)methyl]cyclohexanecarbonyl]amino]butanoyl]amino]ethoxy]ethoxy]acetyl]amino]ethoxy]ethoxy]acetyl]-AA-Aib-EFVNWLLAGGPSSGAPPPS-NH2
B13: in assay [1], the “hGLP-1R CRE Luc EC50 (pM)” value was 4.7 pM. Further, in assay [2], the “hGIPR CRE Luc EC50 (pM)” value was found to be 27.6 pM. Also, the “hGcgR CRE Luc EC50 (pM)” value with human glucagon receptor is 250 pM.

B14: Compound No. 52 (peptide)
peptide: H[Aib]HGTFTSDYSILLEKQAAQEFVQWLLEGGPSSGAPPPS-OH
modifications: not fully specified (residue 16); printed as H-Aib-HGTFTSDYSILLE-K[(2S)-2-amino-6-[[(2S)-2-amino-6-[[(4S)-4-carboxy-4-(17-carboxyheptadecanoylamino)butanoyl]amino]hexanoyl]amino]hexanoyl]-QAAQEFVQWLLEGGPSSGAPPPS-OH
As for B14, in assay [1], the “hGLP-1R CRE Luc EC50 (pM)” value is 0.8 pM. Also, the “hGIPR CRE Luc EC50 (pM)” value in assay [2] stood at 6.6 pM. In the assay with human glucagon receptor, the “hGcgR CRE Luc EC50 (pM)” value is 14.9 pM.
